Data on one protein can be found in publication PMC6745524, “Diverse roles of TssA‐like proteins in the assembly of bacterial type VI secretion systems” (The EMBO Journal, 2019).

This data set deals with the molecule itself. The data set is described as follows: cryo-EM structure.

B1: TssAVC (TssA of Vibrio cholerae, VCA0119), purified (natural protein)
chain: MEMTEYRQCVAKPISSSNPVGERLVDHPLFDFIEDQMMKVGSLSHASVQWDEVEHSTLKLLGEQSKDIKLLVYLLQCLHNQVTPTRLITSFAVMSEFLNQYWNDSYPAPGPRGNLPRRKFFSQMAQRFTTVIEKFDFHHLDEADRQALQAAVEEWQQAVEKQGLSSELVESVVVRITAEIKRAEQRQQVTAQSSAERETPSAATPSPAASMVVDHSSDKAAKQTLLKVADFLAEQEFGIALSIRLRRFAVWGSITSLPDHKPDGETLLRGMQADRVKDYQDQLRHPDLALWRKVEQSLTMAPYWFEGQWMSYTIAQQLGKSDWCQAIAEETQQFLRRLPSLLELKFKGGEPFVSDSVKEWLASVGQSQGAAGQSVGGDWQEKRKEAFQLAKEGGIAVALSMLNDGLVSAVEPRDKFYWRLLSADLLRANHLDAMAGEQYQTLLNQVTTLSVPEWEPSLVEQIQRYTTSE
notes: The His10 tag was removed with TEV protease; Only the CTD (G376-T466) is built in the atomic model; also called TsaC (proposed name); not shown: His10, N-terminal, cleaved; copies: 12
Broadly, the stoichiometry N is a count of units in the complex or per binding partner. Turning to B1, the “stoichiometry N” value was 12.
